Literature values as cited in publication PMC3039444.

Molecular target: Ube2g2 (Homo sapiens) (UniProt P60604)
Sequence of UniProt P60604 (P60604 2-165): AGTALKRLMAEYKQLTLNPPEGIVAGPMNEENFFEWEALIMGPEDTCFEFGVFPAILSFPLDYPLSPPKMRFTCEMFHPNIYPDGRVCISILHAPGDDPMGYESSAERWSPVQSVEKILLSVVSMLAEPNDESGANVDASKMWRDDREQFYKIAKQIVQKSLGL

Kd: 21 nM
Substance: gp78 G2BR (from UniProt Q9UKV5)
